In patent US20040002450A1, “Y17 - isolated molecules comprising epitopes containing sulfated moieties, antibodies to such epitopes, and uses thereof” (priority 2000, published 2004):

What was measured:
[1] = test system: Jurkat cells; experiment: FACS binding to Jurkat cells; design: species or system human; conditions: 1 μg scFv-Y1 versus 5 ng IgG-Y1; two-step staining
Excerpt: The present invention is directed to Y1 and Y17 multimers prepared by any known method in the art. A preferred method of forming multimers, and especially dimers, employs the use of cysteine residues to form disulfide bonds between two monomers. In this embodiment, dimers are formed by adding a cysteine on the carboxyl terminus of the scFvs (referred to as Y1-cys scFv or Y1 dimer) in order to facilitate dimer formation. After the DNA construct was made (See Example 2D and 6D) and used for transfection, Y1 dimers were expressed in a production vector and refolded in vitro. The protein was analyzed by SDS-PAGE, HPLC, and FACS. […] Two peaks were detected by SDS-PAGE (non-reduced) and by gel filtration. The peaks were collected separately and analyzed by FACS. […] Conditions for dimer refolding were determined, and material comprising >90% dimers (mg quantities) was produced after subsequent dialysis, chromatographic, and gel filtration steps. […]
FACS analysis was performed on Jurkat cells using a “three step staining procedure.” First, crude extracts or purified unlabeled scFv are stained, then mouse anti-myc antibodies, and finally, FITC— or PE-conjugated anti-mouse antibodies. […] After the final staining step, cells were fixed by re-suspending in PBS, 1% BSA, 2% formaldehyde, and then read by FACS (Becton-Dickinson).

[2] = test system: platelet-rich-plasma (PRP); experiment: Ristocetin-induced aggregation of platelet-rich-plasma after scFv preincubation; type: cell-based, human; conditions: for % inhibition: ristocetin
Description: The effect of Y1 (scFv) on aggregation of platelet-rich-plasma (PRP) was tested at various concentrations of Y1. PRP was pre-incubated with Y1 scFv, Y17 scFv, or a control sTM-1cFv for 4 min at 37° C. before being exposed to ristocetin, an inducer of platelet agglutination and aggregation. A reversible inhibitory effect was observed when scFv was added to PRP prior to the addition of ristocetin, and it was dose dependent.
Blood was collected into a tube containing 3.8% sodium citrate. Platelet-rich plasma was prepared by centrifugation at 250×g for 10 minutes.
For platelet aggregation studies, platelet rich plasma (PRP) and washed platelets were stirred at 500 rpm at 37° C. in whole blood Lumiaggregometer (Chronolog, Havertown, Pa.). The difference in light transmission through the platelet suspension and suspending medium was taken as 100% aggregation. The effect of Y1 on platelet aggregation was evaluated by addition of different concentration of Y1 before the addition of agonist, and the effect was recorded for four minutes.

[3] = test system: glycocalicin, platelet lysate, KG-1 cell lysate, Raji cell lysate; experiment: Western blot on glycocalicin and cell lysates; type: binding, human
Description: Antibodies against GPIbα (CD42b) recognize platelet lysate and glycocalicin and but not KG-1 cell lysate (a Y1 binding positive myeloid cell line) or Raji cell lysate (a B cell line that is negative for Y1 binding at concentrations at which KG-1 cells are positive for Y1 binding). […] (FIG. 20).
The nitrocellulose membrane was blocked using 5% skim milk for one hour at room temperature. The membrane was then washed 3 times for 5 minutes each with 0.05% Tween 20 in PBS at room temperature. The membrane was incubated with 5 μg/ml Y1-biotin (or 181-biotin) in 2% skim milk in PBS for one hour at room temperature. The membrane was then washed 3 times for 5 minutes each with cold 0.05% Tween 20 in PBS in the cold room (about 4 to about 10° C.). The membrane was then incubated in the cold room with a 1:1000 dilution of SAV-HRP (streptavidin-HRP) (at a final concentration of […]) in 2% skim milk, 0.05% Tween. The dilution was carried out at room temperature (about 25° C.), then the diluted SAV-HRP was cooled on ice for 10-15 minutes before use. The incubation was carried out for 1 hour with gentle shaking. After the incubation with SAV-HRP, the membrane was washed, as above. The membrane was then incubated with Super Signal mixture (Pierce) for 5 minutes as directed in the commercial protocol, then excess solution was dried. […]

[4] = test system: KG-1 cells; experiment: FACS and binding competition on KG-1 cells (Y1 forms and multimers); design: species or system human; conditions: 5 μg and 10 μg
Excerpt: To compare the binding of the scFv monomer (also referred to as CONY1) with the Y1 dimer, binding competition experiments were done in vitro on KG-1 cells. In addition, these experiments also compared the binding of the full Y1 IgG to the scFv Y1 monomers. To perform this study, a Y1 IgG was labeled with biotin.
In a preferred method, tetramers are formed via a biotin/streptavidin association. A novel fermentation construct that is capable of being enzymatically labeled with biotin (referred to herein as Y1-biotag or Y1-B) was created. A sequence that is a substrate for the BirA enzyme was added at the Y1C-terminus. The BirA enzyme adds a biotin to the lysine residue within the sequence. Y1-biotag was expressed in E. coli. The inclusion body material was isolated and refolded. The purity of the folded protein was >95%, and >100 mg were obtained from a 1-L culture (small-scale, non-optimized conditions). […] Nevertheless, this construct offered the advantage of specific biotinylation in which the binding site of the molecule remains intact. Further, each molecule is labeled by only one biotin—each molecule receives one biotin on the carboxyl end.
Limiting labeling to one biotin/molecule in a desired location enabled production of tetramers with streptavidin. The tetramers were formed by incubating Y1-B with steptavidin-PE. […]

B1: Y1 scFv: fully human scFv clone binding platelets and myelogenous leukemia cells; SEQ ID NO: 25, heavy chain CDR3 SEQ ID NO: 8 (protein, listed as Homo sapiens)
scFv: MKYLLPTAAAGLLLLAAQPAMAEVQLVESGGGVVRPGGSLRLSCAASGFTFDDYGMSWVRQAPGKGLEWVSGINWNGGSTGYADSVKGRFTISRDNAKNSLYLQMNSLRAEDTAVYYCARMRAPVIWGQGTLVTVSRGGGGSGGGGSGGGGSSELTQDPAVSVALGQTVRITCQGDSLRSYYASWYQQKPGQAPVLVIYGKNNRPSGIPDRFSGSSSGNTASLTITGAQAEDEADYYCNSRDSSGNHVVFGGGTKLTVLGAAAEQKLISEEDLNGAA
fold more molecules needed for a level of detection similar to IgG-Y1 [1]: approximately 10^3 fold | effect on ristocetin-induced platelet aggregation in PRP (in words) ([2]; 25 μg/ml): no significant inhibition | % inhibition ([2]; scFv 25 μg/ml, PRP): 13% | % aggregation ([2]; scFv 25 μg/ml, PRP, ristocetin = 100%): 87% | % inhibition ([2]; scFv 50 μg/ml, PRP, first 4 minutes): 80% | recognition of glycocalicin, platelet lysate, KG-1 and Raji cell lysate [3]: recognized both glycocalicin, platelet lysate, and KG-1 cells, but not Raji cell extract | competition with Y1 IgG-Biotin (50 ng) [4]: partially competed
